Measured values taken from PMC11700839.

Target: ETS1 transcription factor (endogenous, FP-RMS cells) (human (endogenous in Rh30 and Rh41)) (UniProt P14921)
Assay: co-IP; endogenous proteins from Rh30 and Rh41 cells, IP with ETS1 antibody (rabbit IgG as negative control), immunoblot; also with Ethidium Bromide or Benzonase in the IP; also cells pre-treated 16 hours with 1 µM YK-4-279 or DMSO and the same included in the IP reaction, recovery by densitometry normalized to ETS1

Sequence of UniProt P14921 (P14921 whole entry): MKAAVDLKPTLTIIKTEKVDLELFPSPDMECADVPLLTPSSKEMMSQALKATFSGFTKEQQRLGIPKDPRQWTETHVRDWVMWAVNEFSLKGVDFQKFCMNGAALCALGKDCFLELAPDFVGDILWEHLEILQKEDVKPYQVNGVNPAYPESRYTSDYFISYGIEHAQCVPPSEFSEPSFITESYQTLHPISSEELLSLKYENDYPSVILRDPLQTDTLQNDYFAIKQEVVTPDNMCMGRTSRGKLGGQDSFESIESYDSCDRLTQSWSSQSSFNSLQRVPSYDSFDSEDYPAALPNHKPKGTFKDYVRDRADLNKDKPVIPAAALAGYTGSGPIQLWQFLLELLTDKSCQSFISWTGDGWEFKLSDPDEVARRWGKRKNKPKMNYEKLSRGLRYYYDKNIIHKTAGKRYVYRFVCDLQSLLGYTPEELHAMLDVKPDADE

co-immunoprecipitated PAX3-FOXO1 with 1 µM YK-4-279, percent of DMSO control (Rh30 cells) (% of DMSO control): 50
co-immunoprecipitated PAX3-FOXO1 with 1 µM YK-4-279, percent of DMSO control (Rh41 cells) (% of DMSO control): 65
Substance: PAX3-FOXO1 oncofusion (endogenous, FP-RMS cells) (natural protein)
